Measured values as given in publication PMC4235346.

Experiments:
Assay in all cases: fluorescence anisotropy
Settings in all cases: 10 nM labelled DNA, 10 mM HEPES pH 7.0, 60 mM NaCl, 240 mM KCl, 25 C, anaerobic, 5 mM EDTA for apo or 1.2x (InrS) / 2.2x (ZiaR) metal …
[1] = system: InrS (Synechocystis PCC 6803)
[2] = system: InrS E95A (Synechocystis PCC 6803)
[3] = system: InrS E98A (Synechocystis PCC 6803)
[4] = system: ZiaR (Synechocystis PCC 6803)

Row | Substance | Kd ([1]; Cu(I), 1.2 molar excess) [nM] | Kd ([1]; Cu(II), 1.2 molar excess) [nM] | Kd ([1]; Ni(II), 1.2 molar excess) [nM] | Kd ([1]; Zn(II), 1.2 molar excess) [nM] | Kd ([1]; apo, 5 mM EDTA) [nM] | Kd ([2]; Ni(II), 1.2 molar excess) [nM] | Kd ([2]; apo, 5 mM EDTA) [nM] | Kd ([3]; Ni(II), 1.2 molar excess) [nM] | Kd ([3]; apo, 5 mM EDTA) [nM] | Kd ([4]; Zn(II), 2.2 molar excess, K1 (printed as >>)) [nM] | Kd ([4]; Zn(II), 2.2 molar excess, K2 (printed as >>)) [nM] | Kd ([4]; apo, 5 mM EDTA, K1 (first dimer)) [nM] | Kd ([4]; apo, 5 mM EDTA, K2 (second dimer)) [nM]
1 | TCATCAATATCCCCCCTGGGGGCATAGAATAGA (double strand) [nrsDProFA (nrsD operator-promoter)] | 3100 | 3600 | 2300 | 980 | 9.4 | 1400 | 22 | 1300 | 21 | – | – | – | –
2 | zia operator-promoter (zia o/p) | – | – | – | – | – | – | – | – | – | > 10000 | > 10000 | 22 | 530
